Values of other authors in publication PMC5983787.
Read-outs that look alike come from different tables or passages of the source.

Columns and labels:
Cx43 [1] = target: Cx43 (UniProt P17302)
Cx43 [2] = target: Cx43 (UniProt P17302); remark: listed apart in the source

UniProt P17302, sequence (P17302 2-382): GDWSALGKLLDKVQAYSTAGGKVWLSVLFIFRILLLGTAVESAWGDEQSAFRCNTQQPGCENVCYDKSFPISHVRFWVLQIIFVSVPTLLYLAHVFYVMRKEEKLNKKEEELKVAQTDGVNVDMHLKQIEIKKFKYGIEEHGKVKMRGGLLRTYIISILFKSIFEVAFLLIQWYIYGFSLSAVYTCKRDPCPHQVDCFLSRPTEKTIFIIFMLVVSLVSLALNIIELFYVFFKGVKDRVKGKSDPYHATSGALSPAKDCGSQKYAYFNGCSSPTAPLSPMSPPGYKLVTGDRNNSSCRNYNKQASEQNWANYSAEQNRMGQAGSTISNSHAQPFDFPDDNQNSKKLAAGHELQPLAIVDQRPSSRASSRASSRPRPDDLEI

Kd (Cx43 [1]): 1060 µM
Kd (Cx43 [2]): 585 µM
Substance: Nedd4 (from UniProt P46934)
